According to the supplement of paper PMC9112550, “Optimization of the antimicrobial peptide Bac7 by deep mutational scanning” (BMC Biology, 2022):

Each sequence was assayed on Escherichia coli TOP10 (assay: shrunken log2 fold change of peptide-encoding DNA abundance (4.5 h post-induction vs induction); higher = less antimicrobial activity (less host growth inhibition)). Conditions: time post-induction: 4.5 h; library: site-saturation at positions 5, 18, 19, 20.
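Further: peptides expressed intracellularly from a pBAD plasmid library in pooled LB shake-flask culture, induced with 0.3% L-arabinose, DNA abundance read by NGS, three biological replicates, DESeq2 with apeglm shrinkage.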

| Sequence | shrunken log2 fold change |
| --- | --- |
| RRIRHRPPRLPRPRPRPKNMPRP | -0.231 |
| RRIRIRPPRLPRPRPRPVIHPRP | -0.248 |
| RRIRARPPRLPRPRPRPGAKPRP | 0.623 |
| RRIRQRPPRLPRPRPRPKGVPRP | -0.00208 |
| RRIRRRPPRLPRPRPRPLQSPRP | 0.242 |
| RRIRCRPPRLPRPRPRPPMVPRP | -0.147 |
| RRIRCRPPRLPRPRPRPVNLPRP | 2.47 |
| RRIRTRPPRLPRPRPRPGALPRP | 0.00437 |
| RRIRRRPPRLPRPRPRPQGLPRP | 0.143 |
| RRIRIRPPRLPRPRPRPIVKPRP | -0.0118 |
| RRIRDRPPRLPRPRPRPAMSPRP | 0.184 |
| RRIRMRPPRLPRPRPRPILVPRP | 0.133 |
| RRIRYRPPRLPRPRPRPWLDPRP | -0.225 |
| RRIRFRPPRLPRPRPRPERFPRP | -0.104 |
| RRIRPRPPRLPRPRPRPLTHPRP | -0.108 |
| RRIRPRPPRLPRPRPRPQMTPRP | 2.25 |
| RRIRVRPPRLPRPRPRPFAYPRP | -0.528 |
| RRIRSRPPRLPRPRPRPVNRPRP | -0.107 |
| RRIRIRPPRLPRPRPRPQDTPRP | -0.048 |
| RRIRKRPPRLPRPRPRPMIFPRP | -0.132 |
| RRIRARPPRLPRPRPRPCGPPRP | 0.0702 |
| RRIRYRPPRLPRPRPRPPPPPRP | 1.2 |
| RRIRVRPPRLPRPRPRPQKSPRP | -0.162 |
| RRIRNRPPRLPRPRPRPDGDPRP | -0.194 |
| RRIRHRPPRLPRPRPRPQRNPRP | -0.223 |

| Sequence | shrunken log2 fold change |
| --- | --- |
| RRIRTRPPRLPRPRPRPYCVPRP | -0.142 |
| RRIRARPPRLPRPRPRPWKRPRP | 0.125 |
| RRIRKRPPRLPRPRPRPSRQPRP | 0.192 |
| RRIRDRPPRLPRPRPRPDMNPRP | 0.287 |
| RRIRGRPPRLPRPRPRPPTPPRP | 1.22 |
| RRIRMRPPRLPRPRPRPRPYPRP | 0.126 |
| RRIRDRPPRLPRPRPRPHTHPRP | -0.0285 |
| RRIRPRPPRLPRPRPRPAGIPRP | -0.0533 |
| RRIRDRPPRLPRPRPRPHMQPRP | -0.368 |
| RRIRVRPPRLPRPRPRPRCVPRP | 0.0659 |
| RRIRDRPPRLPRPRPRPAMRPRP | 0.415 |
| RRIRVRPPRLPRPRPRPAKTPRP | 0.0432 |
| RRIRGRPPRLPRPRPRPVWYPRP | 0.196 |
| RRIRVRPPRLPRPRPRPFPDPRP | -0.345 |
| RRIRMRPPRLPRPRPRPIVQPRP | -0.0131 |
| RRIRCRPPRLPRPRPRPEDQPRP | 1.21 |
| RRIRQRPPRLPRPRPRPICCPRP | 0.259 |
| RRIRMRPPRLPRPRPRPNQKPRP | 0.00203 |
| RRIRFRPPRLPRPRPRPWDRPRP | -0.167 |
| RRIRWRPPRLPRPRPRPKYLPRP | -0.1 |
| RRIRYRPPRLPRPRPRPHPHPRP | -0.744 |
| RRIRNRPPRLPRPRPRPYYVPRP | -0.207 |
| RRIRTRPPRLPRPRPRPTTFPRP | -0.012 |
| RRIRVRPPRLPRPRPRPVMTPRP | 0.0124 |
| RRIRQRPPRLPRPRPRPYIMPRP | -1.64 |

| Sequence | shrunken log2 fold change |
| --- | --- |
| RRIRDRPPRLPRPRPRPMIYPRP | -0.0383 |
| RRIRTRPPRLPRPRPRPMEYPRP | -0.0122 |
| RRIRLRPPRLPRPRPRPAYDPRP | -0.00456 |
| RRIRFRPPRLPRPRPRPLGFPRP | -0.146 |
| RRIRRRPPRLPRPRPRPMHKPRP | 0.299 |
| RRIRHRPPRLPRPRPRPCLKPRP | -0.16 |
| RRIRCRPPRLPRPRPRPIIDPRP | -0.323 |
| RRIRCRPPRLPRPRPRPKQHPRP | 0.189 |
| RRIRTRPPRLPRPRPRPPMFPRP | -0.097 |
| RRIRQRPPRLPRPRPRPHFDPRP | -0.000826 |
| RRIRTRPPRLPRPRPRPYWRPRP | -0.174 |
| RRIRSRPPRLPRPRPRPGVWPRP | 0.74 |
| RRIRVRPPRLPRPRPRPFPWPRP | -0.0892 |
| RRIRERPPRLPRPRPRPWLRPRP | 0.0269 |
| RRIRDRPPRLPRPRPRPYQDPRP | -0.00141 |
| RRIRMRPPRLPRPRPRPLELPRP | 0.337 |
| RRIRERPPRLPRPRPRPRSHPRP | -0.349 |
| RRIRMRPPRLPRPRPRPACHPRP | 0.151 |
| RRIRLRPPRLPRPRPRPWWRPRP | 0.197 |
| RRIRGRPPRLPRPRPRPTCRPRP | 0.825 |
| RRIRSRPPRLPRPRPRPGRLPRP | 0.00392 |
| RRIRWRPPRLPRPRPRPMEDPRP | 0.383 |
| RRIRFRPPRLPRPRPRPCEYPRP | -0.000476 |
| RRIRERPPRLPRPRPRPEESPRP | 0.148 |
| RRIRCRPPRLPRPRPRPRIAPRP | 0.0204 |
